Measured values from patent publication US12692533B2, “Methods and compositions for noninvasive detection of organ transplant rejection” (Georgia Tech Research Corporation, priority 2016, dated 2026).
Square brackets hold non-standard residues; d marks the D form. Ends that are not written are not given here.

Columns and labels:
[1] = tested on: proteases in the coagulation and complement cascades; assay: Specificity: cleavage by key recombinant proteases and activated coagulation and complement cascades; type: biochemical; conditions: recombinant proteases; plasma + Ca2+; serum + HAGG; fluorescence
Experimental: (§1) Synthetic biomarkers (6 nM by NP, 300 nM by peptide) were incubated in PBS+1% bovine serum albumin (BSA; Sigma) at 37° C. with murine Granzyme B (0.2 μM, Peprotech), human thrombin (HaemTech), mouse thrombin (HaemTech), mouse plasmin (HaemTech), Clr (Sigma), Cls (Sigma), Factor D (Sigma), Factor I (Sigma), MASP2 (Biomatik). Sample fluorescence were measured for 60 minutes using Cytation 5 plate reader (Biotek). To optimize GzmB substrate, a library of potential substrates was synthesized by Tufts University Core Facility peptide synthesis service and conjugated to IONPs. Cleavage assays of nanoparticles decorated with these substrates with recombinant GzmB were performed, and data was fitted to compare initial cleavage velocities. To determine Michaelis-Menten constants, cleavage assays with GzmB were performed at different substrate concentrations. To initiate coagulation cascade, citrated plasma was mixed with synthetic biomarkers before addition of calcium chloride (15 mM, Sigma). To initiate complement activation, Control Human Serum (Sigma) was mixed with synthetic biomarkers before addition of Heat Aggregated Gamma Globulin (HAGG; Quidel) per the manufacturer's protocol. After measuring fluorescence for 1 hour, supernatants were collected and measured for formation of MAC complex using Micro Vue CH50 Eq EIA Kit (Quidel).

[2] = tested on: membrane attack complex (MAC); type: biochemical, Human
Experimental: as §1

[3] = tested on: T cells from skin graft mice with BALB/c donor splenocytes; assay: NP assay sensing alloreactive T cell killing (coculture supernatants); type: cell-based, mouse; conditions: cocultures containing T cells from mice bearing allografts
Experimental: (§3) To sense transgenic T cell killing, CD8+OT1 T cells were isolated and activated per above protocol. On day 5 post activation, 1x10^6 OT1 T cells were coincubated with 1x10^6 EL4 or EG7-OVA target cells for 2 hours at 37° C. Coculture supernatants were mixed with synthetic biomarkers (2 nM by NP, 100 nM by peptides) and fluorescence were monitored for 1 hour at 37° C. To sense alloreactive T cell killing, on day 7 post-transplant, CD8 T cells were isolated from splenocytes and lymphocytes of skin graft mice. 5×10^5 CD8 T cells from skin graft mice were restimulated with 5×10^5 splenocytes from BALB/c Mice (Charles River) for 6 hours at 37° C. Coculture supernatants were mixed with synthetic biomarkers (2 nM by NP, 100 nM by peptides) and fluorescence were monitored for 2 hours at 37° C.

[4] = target: T1, GzmB (Mus musculus, UniProt P04187); assay: Tracking in vivo GzmB cleavage by near infra-red imaging in skin graft mice
T1 construct: cleaved by GzmB secreted by alloreactive T cells; endogenous in cells; host or cells: alloreactive CD8 T cells of C57BL/6 recipient mice bearing BALB/c skin grafts
T1 sequence (P04187 21-247): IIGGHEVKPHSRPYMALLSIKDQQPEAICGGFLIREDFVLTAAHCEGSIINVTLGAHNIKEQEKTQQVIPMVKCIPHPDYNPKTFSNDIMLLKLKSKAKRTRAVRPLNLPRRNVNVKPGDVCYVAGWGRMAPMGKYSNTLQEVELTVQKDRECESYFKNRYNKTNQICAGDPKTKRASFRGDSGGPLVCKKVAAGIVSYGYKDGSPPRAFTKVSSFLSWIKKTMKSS
Experimental: (§2) To track cleaved fragments after in vivo GzmB cleavage, on day 7 post-transplant, VT750-labelled synthetic biomarkers (10 nmol by peptides) were administered to skin graft mice. Major organs were excised and imaged with Odyssey CLx Imaging System (LI-COR) while mouse bladders were imaged with IVIS Spectrum CT Imaging System (PerkinElmer) after 90 minutes. All urinalysis experiments were done in paired setup. 4 days before and 7 days after surgeries, skin graft mice were administered with FITC-labelled Synthetic biomarkers (10 nmol by peptides). Urine were collected after 90 minutes by placing mice over 96-well plates. FITC in urine was purified by a magnetic separation assay using Dynabeads (Thermo, 65501) coated with anti-FITC (GeneTex, GTX10257). Fluorescent signals were measured with Cytation 5 Plate Reader (Biotek). Concentrations of FITC were calculated using a free FITC ladder and normalized with urine volume. For CD8 depletion study, mice were given anti-mouse CD8 (clone: 53-6.7, BioXCell) for 3 consecutive days following with booster shots every 3 days after. Flow cytometry analysis of splenocytes and lymphocytes were performed with anti-mouse CD3 (clone: 17A2, Biolegend), anti-mouse CD4 (clone: RM4-5, Biolegend), anti-mouse CD8 (clone: KT15, Serotec) to confirm success of depletion.

[5] = target: T1, GzmB; assay: Urinary prediction of acute cellular rejection in skin graft mouse model; type: in vivo, mice
Experimental: as §2

[6] = in plasma, DLS
From the text: DLS measurements of synthetic biomarkers were done in PBS or mouse plasma at RT using Zetasizer Nano ZS (Malvern).

[7] = tested on: OT1 T cells killing EG7-OVA target cells
Experimental: as §3

[8] = in vivo
[9] = target: T2, murine Granzyme B (Mus musculus, UniProt P04187); assay: In vitro protease cleavage assay with recombinant GzmB; type: biochemical; conditions: substrate conjugated to IONPs, library of 13 candidate substrates
T2 construct: purchased Peprotech
T2 sequence (P04187 21-247): T1 sequence (P04187 21-247)
Experimental: as §1

Substance	activation by proteases in the coagulation and complement cascades [1]	formation of membrane attack complex (MAC) [2]	activation kinetics [3]	full body imaging bladder fluorescent signals ([4]; allograft vs isograft mice)	GzmB activity (fluorescent signal) in kidney, allograft mice with respect to isograft mice ([4]; day 7 post-transplant) [fold]	ROC area under the curve (AUC) ([5]; accepting isografts vs rejecting allografts)	post-graft urine signals compared to pre-graft signals ([5]; allograft mice, day 7 vs day -4)	post-graft urine signals with respect to pre-graft signals ([5]; naïve mice, isograft mice, allograft mice depleted of CD8 T cells)	Z-average [6] [nm]	sensing of cytotoxic signal (fluorescence) [7]	correlation of initial velocity of probe activation with secretory GzmB ([7]; coculture supernatant)	tolerability [8]	rate of cleavage by recombinant GzmB [9]	rate of cleavage by recombinant GzmB ([9]; listed as AIEFD|SGc)
synthetic biomarkers: PEG-coated iron oxide nanoparticles conjugated with GzmB peptide substrates carrying a fluorescent reporter (AIEFDSG[dC]; not fully specified; printed as AIEFDSGc; also: conjugated to PEG-coated iron oxide nanoparticle via Cys thiol and SIA, FITC reporter, position not given here)	not activated	not detected	Increased activation kinetics	only detected fluorescent signals from the bladders of allograft mice	3	0.969	more than 2 fold	did not detect significant elevation	47	amplified cytotoxic signal	strongly correlated	well tolerated	–	–
AIEFDSGc (AIEFDSG[dC])	–	–	–	–	–	–	–	–	–	–	–	–	high rate of cleavage	highest rate of cleavage
